Experimental data from patent publication US20200079851A1 (University of Texas, published 2020).
Each block holds one binder with its values, some of them ahead of it.

Key:
human LILRB4 [1] = target: T1, human LILRB4 (human, UniProt Q8NHJ6 22-259, limits assumed); assay: ELISA
T1 construct: also called leukocyte immunoglobulin-like receptor subfamily B member 4

human LILRB4 [2] = target: T1, human LILRB4; assay: ELISA, OD450 against antibody concentration
LILRB5 [3] = target: T2, LILRB5 (human, UniProt O75023 24-458, limits assumed); assay: cross-reactivity ELISA (FIG. 46)
LILRB1 [4] = target: T3, LILRB1 (human, UniProt Q8NHL6 24-458, limits assumed); assay: cross-reactivity ELISA (FIG. 46)
T3 construct: also called leukocyte immunoglobulin-like receptor subfamily B member 1

D2 = target: T4, D2; assay: matrix of binding to LILRB4 domain-Fc fusions (FIG. 47); ELISA per paragraph 433
T4 construct: also called LILRB4 D2-hIgG1-Fc; second Ig-like domain of LILRB4 as Fc fusion

[5] = target: T5, LILRB4 D1 (first Ig-like domain) Fc fusion protein (human, UniProt Q8NHJ6 27-118); assay: as above
T5 construct: also called D1 of LILRB4; not shown: Fc part

SR = target: T6, SR; assay: as above
T6 construct: also called LILRB4 SR-hIgG1-Fc; stalk region of LILRB4 as Fc fusion

D2-SR-M2(139-235) [6] = target: T7, D2-SR-M2(139-235); assay: ELISA, mAb 216-2 titrated
T7 chain: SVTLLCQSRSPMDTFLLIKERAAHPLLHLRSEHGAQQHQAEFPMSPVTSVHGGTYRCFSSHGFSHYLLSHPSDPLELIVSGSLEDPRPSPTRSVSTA

D2-SR-M15(139-219) [7] = assay: ELISA, mAb 216-2 titrated
D2-SR-M2(139-235) [8] = target: T7, D2-SR-M2(139-235); assay: ELISA, mAb 8 titrated
D2-SR-M15(139-219) [9] = assay: ELISA, mAb 8 titrated
human LILRB4 [10] = target: T1, human LILRB4; assay: ELISA, OD450 against antibody concentration; remark: listed apart in the source
D2-SR-Fc = target: T8, D2-SR-Fc; assay: ELISA, mAb titrated on D2-SR-wt(119-259)
T8 construct: also called D2-SR-WT

D2-SR-M1(139-259) = assay: ELISA, mAb titrated on D2-SR-M1(139-259)
LILRB2 = target: T9, LILRB2 (human, UniProt Q8N423 22-458, limits assumed); assay: cross-reactivity test on the LILRBs (ELISA per paragraph 433)
T9 construct: also called leukocyte immunoglobulin-like receptor subfamily B member 2

LILRB5 [11] = target: T2, LILRB5; assay: as above
LILRB1 [12] = target: T3, LILRB1; assay: as above
LILRB3 = target: T10, LILRB3 (human, UniProt O75022 24-443, limits assumed); assay: as above
T10 construct: also called leukocyte immunoglobulin-like receptor subfamily B member 3
T10 sequence (O75022 24-443 limits assumed): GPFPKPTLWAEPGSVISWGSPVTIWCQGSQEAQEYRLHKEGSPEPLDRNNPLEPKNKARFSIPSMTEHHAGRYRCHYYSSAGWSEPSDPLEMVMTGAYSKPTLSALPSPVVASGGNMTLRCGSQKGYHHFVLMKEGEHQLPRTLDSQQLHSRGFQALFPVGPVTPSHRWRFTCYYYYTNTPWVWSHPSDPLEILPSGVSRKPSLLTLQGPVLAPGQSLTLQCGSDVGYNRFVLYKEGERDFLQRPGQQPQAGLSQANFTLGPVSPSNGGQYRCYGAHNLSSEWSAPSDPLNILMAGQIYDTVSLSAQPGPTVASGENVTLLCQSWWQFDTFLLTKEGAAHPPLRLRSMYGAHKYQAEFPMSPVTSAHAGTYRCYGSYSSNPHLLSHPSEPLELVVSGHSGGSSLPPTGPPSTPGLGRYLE

T2 sequence (O75023 24-458 limits assumed): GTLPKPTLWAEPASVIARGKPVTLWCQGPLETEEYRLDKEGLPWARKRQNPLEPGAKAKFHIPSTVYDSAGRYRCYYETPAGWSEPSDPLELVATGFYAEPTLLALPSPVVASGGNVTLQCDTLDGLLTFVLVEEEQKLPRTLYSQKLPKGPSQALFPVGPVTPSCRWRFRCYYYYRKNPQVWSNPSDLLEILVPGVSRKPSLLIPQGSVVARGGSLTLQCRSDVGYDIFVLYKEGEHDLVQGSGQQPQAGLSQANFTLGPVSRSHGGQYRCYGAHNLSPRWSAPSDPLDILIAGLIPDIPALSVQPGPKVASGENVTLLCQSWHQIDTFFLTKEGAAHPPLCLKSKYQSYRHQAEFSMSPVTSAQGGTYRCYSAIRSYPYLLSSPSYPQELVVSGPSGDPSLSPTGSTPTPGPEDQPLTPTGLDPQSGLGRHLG
T6 sequence (fusion chain, as listed by the source): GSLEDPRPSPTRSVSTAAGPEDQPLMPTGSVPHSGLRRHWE
T4 sequence (fusion chain, as listed by the source): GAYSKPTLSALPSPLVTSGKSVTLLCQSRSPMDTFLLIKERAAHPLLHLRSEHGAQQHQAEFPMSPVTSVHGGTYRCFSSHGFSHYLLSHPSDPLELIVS
T5 sequence (Q8NHJ6 27-118): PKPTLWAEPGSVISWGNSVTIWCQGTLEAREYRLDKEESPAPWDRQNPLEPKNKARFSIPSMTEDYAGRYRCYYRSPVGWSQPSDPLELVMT
T3 sequence (Q8NHL6 24-458 limits assumed): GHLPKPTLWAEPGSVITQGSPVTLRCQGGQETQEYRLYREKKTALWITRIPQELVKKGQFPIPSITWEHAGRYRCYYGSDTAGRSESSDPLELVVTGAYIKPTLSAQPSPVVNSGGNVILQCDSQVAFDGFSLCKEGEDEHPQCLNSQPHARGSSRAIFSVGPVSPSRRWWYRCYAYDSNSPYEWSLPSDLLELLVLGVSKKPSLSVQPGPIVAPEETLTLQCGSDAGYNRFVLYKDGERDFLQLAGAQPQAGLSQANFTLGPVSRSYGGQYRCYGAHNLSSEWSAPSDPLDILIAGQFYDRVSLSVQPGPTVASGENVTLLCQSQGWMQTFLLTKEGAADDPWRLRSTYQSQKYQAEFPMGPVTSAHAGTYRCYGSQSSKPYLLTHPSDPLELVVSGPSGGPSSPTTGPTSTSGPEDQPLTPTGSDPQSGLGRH
T9 sequence (Q8N423 22-458 limits assumed): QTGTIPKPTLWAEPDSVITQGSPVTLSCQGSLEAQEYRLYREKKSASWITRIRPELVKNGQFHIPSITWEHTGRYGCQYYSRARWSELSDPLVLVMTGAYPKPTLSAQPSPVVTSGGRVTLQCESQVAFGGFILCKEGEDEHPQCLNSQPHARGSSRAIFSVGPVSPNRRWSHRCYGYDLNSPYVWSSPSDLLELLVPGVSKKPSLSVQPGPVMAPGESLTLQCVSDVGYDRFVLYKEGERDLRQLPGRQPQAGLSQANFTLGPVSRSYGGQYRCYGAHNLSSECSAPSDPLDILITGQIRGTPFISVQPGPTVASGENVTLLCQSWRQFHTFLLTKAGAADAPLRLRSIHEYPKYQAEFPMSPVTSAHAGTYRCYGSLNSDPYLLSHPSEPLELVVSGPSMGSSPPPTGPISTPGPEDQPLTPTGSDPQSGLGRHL
T8 sequence (Q8NHJ6 119-259): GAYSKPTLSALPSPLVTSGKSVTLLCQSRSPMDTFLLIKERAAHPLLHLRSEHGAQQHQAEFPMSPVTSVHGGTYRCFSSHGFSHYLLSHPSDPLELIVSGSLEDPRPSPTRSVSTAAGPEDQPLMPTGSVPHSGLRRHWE

EC50 (human LILRB4 [1]): 0.0647 nM
EC50 (human LILRB4 [2]): 0.0097 mg/L
binding result (LILRB5 [3]): binds
binding result (LILRB1 [4]): binds
binding result (D2): no binding
binding result [5]: no binding
binding result (SR): binds
binding result (D2-SR-M2(139-235) [6]): no binding (tested: 1000 ng/ml)
binding result (D2-SR-M15(139-219) [7]): no binding (tested: 1000 ng/ml)
B1: anti-LILRB4 rabbit monoclonal antibody #216-2 (antibody, V domains shown)
VH: EQSLKESGGRLVTPGTPLTLTCTVSGIDLSSYAMTWVRQVPGKGLEYIGFINIVGIAGYATWAKGRFTISKTSTTVDLKVTSPTTEDTATYFCARNWIRLDLWGQGTLVTVSS
VL: ELVMTQTPASVSAAVGGTVTISCQSSESLYKKNYLSWFQQKPGQPPKLLIYEASKLASGVPSRFSGSGSGTQFTLTISDVQCDDAASYYCLGDYTNGRDTTFGGGTEVEIK

binding result (D2-SR-M2(139-235) [8]): no binding (tested: 1000 ng/ml)
binding result (D2-SR-M15(139-219) [9]): no binding (tested: 1000 ng/ml)
EC50 (human LILRB4 [1]): 0.0629 nM
EC50 (human LILRB4 [10]): 0.00943 mg/L
EC50 (read off the curve) (D2-SR-Fc): ~0.03 mg/L
EC50 (read off the curve) (D2-SR-M1(139-259)): ~0.03 mg/L
binding result (LILRB2): no binding
binding result (LILRB5 [11]): no binding
binding result (LILRB1 [12]): no binding
binding result (LILRB3): no binding
binding result (D2): no binding
binding result [5]: no binding
binding result (SR): binds
B2: anti-LILRB4 rabbit monoclonal antibody #8 (antibody, V domains shown)
VH: QSVKESGGGLVTPGGTLTLTCTASGFSLISYDMYWVRQAPGKGLEYIGIIYSDGYTFYATGAKGRITISRTSTTVDLKITSPTTEDTATYFCATNAFALWGQGTLVTISS
VL: ELDLTQTPSSVSAAVGGTVTISCQSSQNVYNNNWLVWLQQKPGQPPKRLIYTASSLASGVPSRFAGSGSATQFTLTISDLECGDAATYYCAGGYSGPIYTFGGGTEVEIK
notes: also called mAb 8
